# T1: Boi1 SH3 (BOI1_YEAST), P38041
# T1 chain: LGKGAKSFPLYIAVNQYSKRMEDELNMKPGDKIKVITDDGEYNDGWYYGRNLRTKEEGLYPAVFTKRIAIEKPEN
# T2: Boi2 SH3 (BOI2_YEAST), P39969
# T2 chain: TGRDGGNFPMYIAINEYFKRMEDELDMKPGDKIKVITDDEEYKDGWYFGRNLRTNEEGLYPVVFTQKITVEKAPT
# T3: Myo5 SH3 (MYO5_YEAST), Q04439
# T3 chain: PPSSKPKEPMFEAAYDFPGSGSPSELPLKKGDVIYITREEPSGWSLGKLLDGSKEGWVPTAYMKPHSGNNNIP
# T4: Rvs167 SH3 (RV167_YEAST), P39743
# T4 chain: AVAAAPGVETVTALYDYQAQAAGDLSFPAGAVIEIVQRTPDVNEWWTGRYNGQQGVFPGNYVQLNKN
# T5: Yfr024 SH3 (LSB3_YEAST), P43603
# T5 chain: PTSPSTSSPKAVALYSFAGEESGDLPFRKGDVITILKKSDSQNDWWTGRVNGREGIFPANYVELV
# T6: Yhr016c SH3 (YSC84_YEAST), P32793
# T6 chain: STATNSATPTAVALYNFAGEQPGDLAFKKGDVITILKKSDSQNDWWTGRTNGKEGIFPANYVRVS
# Assays:
# Assay in all cases: SPOT array
# [1] = molecular target: T1, Boi1 SH3 (BOI1_YEAST), P38041
# [2] = molecular target: T2, Boi2 SH3 (BOI2_YEAST), P39969
# [3] = molecular target: T3, Myo5 SH3 (MYO5_YEAST), Q04439
# [4] = molecular target: T4, Rvs167 SH3 (RV167_YEAST), P39743
# [5] = molecular target: Sho1 SH3 (SHO1_YEAST), P40073
# Sequence of Sho1 SH3 (SHO1_YEAST), P40073 (P40073 295-366): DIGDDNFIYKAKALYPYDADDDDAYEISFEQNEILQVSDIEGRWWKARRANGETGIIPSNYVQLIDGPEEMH
# [6] = molecular target: T5, Yfr024 SH3 (LSB3_YEAST), P43603
# [7] = molecular target: T6, Yhr016c SH3 (YSC84_YEAST), P32793
Binder,"normalised SPOT signal, Boehringer light units (BLU); mean over the file's lines of this peptide [1]","normalised SPOT signal, Boehringer light units (BLU); mean over the file's lines of this peptide [2]","normalised SPOT signal, Boehringer light units (BLU); mean over the file's lines of this peptide [3]","normalised SPOT signal, Boehringer light units (BLU); mean over the file's lines of this peptide [4]","normalised SPOT signal, Boehringer light units (BLU); mean over the file's lines of this peptide [5]","normalised SPOT signal, Boehringer light units (BLU); mean over the file's lines of this peptide [6]","normalised SPOT signal, Boehringer light units (BLU); mean over the file's lines of this peptide [7]"
NSGEKIYPQEPPIS [YJL020C 582-595],53.9,0,112,43.4,25.7,22.7,16.6
NPIPKSVPLHPKSG [YEL019C 6-19],225,7.9,364,7.3,28.7,88.1,467
NPMQKPVPFVPVLD [YKL182W 1009-1022],66.8,50.2,420,284,191,2450,299
NPFVRINPNRPEAA [YBR136W 500-513],444,47.2,276,56.6,35.9,344,73.5
NRANKYDPKGPIYN [YOL049W 169-182],545,0,205,109,21.7,58,77.6
NSFSKNDPNFPILK [YFL036W 156-169],203,34.2,160,82.4,106,58.8,57.1
NQIARQIPYQPWYL [YDR107C 515-528],105,37.7,164,33.3,47.5,145,42.8

# The next lines start with the values.
"normalised SPOT signal, Boehringer light units (BLU); mean over the file's lines of this peptide [1]","normalised SPOT signal, Boehringer light units (BLU); mean over the file's lines of this peptide [2]","normalised SPOT signal, Boehringer light units (BLU); mean over the file's lines of this peptide [3]","normalised SPOT signal, Boehringer light units (BLU); mean over the file's lines of this peptide [4]","normalised SPOT signal, Boehringer light units (BLU); mean over the file's lines of this peptide [5]","normalised SPOT signal, Boehringer light units (BLU); mean over the file's lines of this peptide [6]","normalised SPOT signal, Boehringer light units (BLU); mean over the file's lines of this peptide [7]",Binder
2270,152,419,6090,64.6,6960,4310,NNLKKRPPTAPQRK [YPR171W 465-478]
1170,219,235,524,1820,1280,1260,NSFRKILPQEPEIW [YBR055C 389-402]
203,20.8,247,58900,1770,39600,44100,NNSTRPIPAIPMDL [YJL133W 8-21]
2120,77.3,491,307,183,1250,521,NRKQRSIPLSPIVP [YEL009C 209-222]
22.9,36.1,248,100,75.8,312,50.4,NQIARQIPFQPWYL [YLR083C 510-523]
585,126,114,344,60.6,389,1140,NLYQRTTPAGPDPS [YOL019W 467-480]

# Source: PMC314469, “Protein Interaction Networks by Proteome Peptide Scanning” (PLoS Biology, 2004)
